Assay [1] concerns the target yeast Dcn1 potentiating neddylation domain (yDcn1^P) (yeast) (UniProt Q12395). As to the kind of experiment: ITC. (In general: Isothermal titration calorimetry measures the heat released or taken up as one component is titrated into another.)
The target of assay [2] is human Dcn1 potentiating neddylation domain (hDcn1^P) (human) (UniProt Q96GG9). As to the kind of experiment: ITC.
Chain of UniProt Q96GG9 (Q96GG9 62-259): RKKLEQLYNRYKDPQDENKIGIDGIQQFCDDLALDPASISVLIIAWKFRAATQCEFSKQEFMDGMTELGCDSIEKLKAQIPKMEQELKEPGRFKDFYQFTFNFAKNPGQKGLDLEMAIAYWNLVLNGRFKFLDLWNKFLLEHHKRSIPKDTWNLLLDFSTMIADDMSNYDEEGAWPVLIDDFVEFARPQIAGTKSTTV

Chain of UniProt Q12395 (Q12395 70-269): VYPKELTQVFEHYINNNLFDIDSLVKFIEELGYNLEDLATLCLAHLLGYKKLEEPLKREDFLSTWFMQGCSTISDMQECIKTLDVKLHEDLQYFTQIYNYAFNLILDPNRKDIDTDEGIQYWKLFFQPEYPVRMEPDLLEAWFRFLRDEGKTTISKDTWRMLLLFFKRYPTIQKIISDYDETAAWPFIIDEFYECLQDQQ

Take “N-terminally formylated yeast Ubc12 peptide”: in assay [1], the fold change of Kd against the acetylated peptide (weaker binding) amounted to 17 fold and the fold improvement of binding over the unacetylated peptide was found to be 10 fold.
“N-terminally formylated human Ubc12 peptide”: in assay [2], the fold change of Kd against the acetylated peptide (weaker binding) was determined as 9 fold and the fold improvement of binding over the unacetylated peptide is 10 fold.

Values taken from publication PMC3214010.
